Data taken from patent publication US20240400657A1 (MorphoSys, published 2024).
Substitutions are numbered along the chain they refer to.

B1: MAB #2 (antibody, human IgG1, lambda)
heavy: EVQLVESGGGLVKPGGSLRLSCAASGFTFSSYAMHWVRQAPGKGLEWVGRIKSVAQGGTTDYAAHVKGRFTISRDDSKNTLYLQMNSLKTEDTAVYYCARVSHSTFDVWGQGTLVTVSSASTKGPSVFPLAPSSKSTSGGTAALGCLVKDYFPEPVTVSWNSGALTSGVHTFPAVLQSSGLYSLSSVVTVPSSSLGTQTYICNVNHKPSNTKVDKRVEPKSCDKTHTCPPCPAPEAEGAPSVFLFPPKPKDTLMISRTPEVTCVVVDVSHEDPEVKFNWYVDGVEVHNAKTKPREEQYNSTYRVVSVLTVLHQDWLNGKEYKCKVSNKALPSSIEKTISKAKGQPREPQVYTLPPSREEMTKNQVSLTCLVKGFYPSDIAVEWESNGQPENNYKTTPPVLDSDGSFFLYSKLTVDKSRWQQGNVFSCSVMHEALHNHYTQKSLSLSPGK
light: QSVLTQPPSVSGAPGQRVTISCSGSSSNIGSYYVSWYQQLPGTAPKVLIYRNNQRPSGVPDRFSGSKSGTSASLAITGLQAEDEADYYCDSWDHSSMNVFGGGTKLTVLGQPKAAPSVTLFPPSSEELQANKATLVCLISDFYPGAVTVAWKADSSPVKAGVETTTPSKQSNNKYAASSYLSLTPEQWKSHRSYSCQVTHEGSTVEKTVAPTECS
notes: lambda 1 light chain
B2: MAB #1 (antibody, human IgG1, lambda)
heavy: B1 heavy with V54K, H103F
light: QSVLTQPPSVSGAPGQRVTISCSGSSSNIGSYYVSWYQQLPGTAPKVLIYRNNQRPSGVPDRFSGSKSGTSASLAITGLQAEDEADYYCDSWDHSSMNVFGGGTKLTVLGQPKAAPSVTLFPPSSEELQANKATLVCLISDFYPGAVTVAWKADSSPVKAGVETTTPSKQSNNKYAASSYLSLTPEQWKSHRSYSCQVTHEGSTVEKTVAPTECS
notes: lambda 1 light chain, VH3-15 framework

Experiments:
[1] = target: T1, human C5aR_NT-bio peptide (human, biotin tag (position not given)); assay: BLI (Octet), apparent (bivalent)
T1 construct: Chemically synthesized linear peptide (Genscript); also called human C5aR N-terminal peptide; human C5aR peptide
T1 peptide: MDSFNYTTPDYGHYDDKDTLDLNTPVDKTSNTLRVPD

[2] = target: T2, Cynomolgus FcRn p51 [1-297]_AviHis/p14 biotinylated (cynomolgus monkey, UniProt Q8SPV9 24-298; Q6T672 21-119, biotinylated in vitro with BirA (Avi tag)); assay: BLI (Octet HTX), biotinylated FcRn on SA sensors, IgG titrated, steady state fit, apparent KD, pH 6.0; * deviation from fit model; pH 6.0
T2 construct: Heterodimer; UniProt Q8SPV9 (p51)
Text: (§1) 0.5 nm of biotinylated human, cynomolgus, mouse and rat FcRn were captured on streptavidin (SA) sensors (FortéBIO, Pall Life Sciences). […] All sensorgrams were fitted using Data Analysis Software 10.0 (FortéBIO, Pall Life Sciences) to determine the apparent affinity and the data was fitted with a steady state model.

[3] = target: T3, full length cynomolgus C5aR stably expressed on CHO Flp-In cells (cynomolgus monkey (Macaca fascicularis)); assay: KinExA on Flp-In CHO cells
T3 chain: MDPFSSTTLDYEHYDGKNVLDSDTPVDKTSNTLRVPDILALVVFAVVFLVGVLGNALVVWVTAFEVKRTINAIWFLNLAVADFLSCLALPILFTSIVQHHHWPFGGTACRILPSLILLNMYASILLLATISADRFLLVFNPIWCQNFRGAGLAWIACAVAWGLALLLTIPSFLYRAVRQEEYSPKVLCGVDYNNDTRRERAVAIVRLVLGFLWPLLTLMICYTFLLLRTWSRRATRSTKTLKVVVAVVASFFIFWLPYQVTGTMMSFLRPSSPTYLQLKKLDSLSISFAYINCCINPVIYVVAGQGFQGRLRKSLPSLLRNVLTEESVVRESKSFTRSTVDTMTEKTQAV
Experimental: Apparent KD determination on C5aR-expressing cells was performed at RT with a KinExA® 3200 instrument (Sapidyne Instruments). PBS (Gibco), supplemented with BSA (1 mg/mL) and 0.02% (v/v) NaN₃ was used as assay buffer. […] After equilibration, the samples were centrifuged and the supernatants were used for analysis. […] The apparent KD was obtained using KinExA® software and by “n-curve analysis,” which fits all of the given curves to a single KD value simultaneously.

[4] = target: T4, C5aR expressed on purified human neutrophils (human, UniProt P21730 1-350); assay: cell-based or functional assay
T4 sequence (looked up): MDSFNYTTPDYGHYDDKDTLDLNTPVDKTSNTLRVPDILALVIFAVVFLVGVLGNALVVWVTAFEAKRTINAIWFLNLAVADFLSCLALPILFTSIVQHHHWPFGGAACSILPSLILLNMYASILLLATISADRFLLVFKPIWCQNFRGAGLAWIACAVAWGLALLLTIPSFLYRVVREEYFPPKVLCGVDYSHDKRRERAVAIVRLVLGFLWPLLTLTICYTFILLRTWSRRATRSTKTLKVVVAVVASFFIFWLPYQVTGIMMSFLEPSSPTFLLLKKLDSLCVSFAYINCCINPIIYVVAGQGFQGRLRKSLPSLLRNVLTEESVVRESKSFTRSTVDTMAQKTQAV

[5] = target: T5, HIS6-mouse C5aR-HV1B1-GAG (mouse); assay: ELISA, coated VLPs expressing mC5aR, IgG titration, AttoPhos fluorescence
T5 construct: negative control; also called murine C5aR on VLPs; mouse C5aR expressed on virus-like-particles

[6] = target: T2, Cynomolgus FcRn p51 [1-297]_AviHis/p14 …; assay: BLI (Octet HTX), biotinylated FcRn on SA sensors, IgG titrated, steady state fit, apparent KD, pH 6.0; * deviation from fit model
Text: as §1

Binder	fold weaker binding affinity compared to MAB #1 [1]	Kd [2]	fold weaker binding than to full-length human C5aR [3]	CD11b assay, granulocytes, 15 nM C5a, 20 minutes of IgG incubation: IC50 [4]	CD11b assay, granulocytes, 15 nM C5a, 300 minutes of IgG incubation: IC50 [4]	CD11b assay, granulocytes: x-fold improvement (20 min. vs 300 min.) [4]	CD11b assay, monocytes, 15 nM C5a, 20 minutes of IgG incubation: IC50 [4]	CD11b assay, monocytes, 15 nM C5a, 300 minutes of IgG incubation: IC50 [4]	CD11b assay, monocytes: x-fold improvement (20 min. vs 300 min.) [4]	binding result [5]	Kd [6]
B1	~10 fold	30 nM									
B2			~20 fold	11 nM	2.3 nM	4.8 fold	4 nM	0.7 nM	5.7 fold	no binding (tested: ~300 nM)	6.8 nM
